B1: Human SS18 (residues 1-387), purified recombinant [human] / BRG1^(1-282), N-terminal 282-residue fragment of BRG1 [human] (parent complex)
chain 1: MSVAFAAPRQRGKGEITPAAIQKMLDDNNHLIQCIMDSQNKGKTSECSQYQQMLHTNLVYLATIADSNQNMQSLLPAPPTQNMPMGPGGMNQSGPPPPPRSHNMPSDGMVGGGPPAPHMQNQMNGQMPGPNHMPMQGPGPNQLNMTNSSMNMPSSSHGSMGGYNHSVPSSQSMPVQNQMTMSQGQPMGNYGPRPNMSMQPNQGPMMHQQPPSQQYNMPQGGGQHYQGQQPPMGMMGQVNQGNHMMGQRQIPPYRPPQQGPPQQYSGQEDYYGDQYSHGGQGPPEGMNQQYYPDGNSQYGQQQDAYQGPPPQQGYPPQQQQYPGQQGYPGQQQGYGPSQGGPGPQYPNYPQGQGQQYGGYRPTQPGPPQPPQQRPYGYDQGQYGNYQQ
chain 2: MSTPDPPLGGTPRPGPSPGPGPSPGAMLGPSPGPSPGSAHSMMGPSPGPPSAGHPIPTQGPGGYPQDNMHQMHKPMESMHEKGMSDDPRYNQMKGMGMRSGGHAGMGPPPSPMDQHSQGYPSPLGGSEHASSPVPASGPSSGPQMSSGPGGAPLDGADPQALGQQNRGPTPFNQNQLHQLRAQIMAYKMLARGQPLPDHLQMAVQGKRPMPGMQQQMPTLPPPSVSATGPGPGPGPGPGPGPGPAPPNYSRPHGMGGPNMPPPGPSGVPPGMPGQPPGGPPK

Variants of: B1
Assay: sedimentation assay; 60 µM each protein; parent: 65; read off a plot

| Variant | screen value [%] |
| --- | --- |
| chain 1 MSVAFAAPRQRGKGEITPAAIQKMLDDNNHLEQCIMDSQNKGKTSECSQYQQMEHTNLVYLATIEDSNQNMQSLLPAPPTQNMPMGPGGMNQSGPPPPPRSHNMPSDGMVGGGPPAPHMQNQMNGQMPGPNHMPMQGPGPNQLNMTNSSMNMPSSSHGSMGGYNHSVPSSQSMPVQNQMTMSQGQPMGNYGPRPNMSMQPNQGPMMHQQPPSQQYNMPQGGGQHYQGQQPPMGMMGQVNQGNHMMGQRQIPPYRPPQQGPPQQYSGQEDYYGDQYSHGGQGPPEGMNQQYYPDGNSQYGQQQDAYQGPPPQQGYPPQQQQYPGQQGYPGQQQGYGPSQGGPGPQYPNYPQGQGQQYGGYRPTQPGPPQPPQQRPYGYDQGQYGNYQQ [chain 1 I32E, chain 1 L54E, chain 1 A65E] | ~6 |

Source: paper PMC9117659, “Phase transition and remodeling complex assembly are important for SS18-SSX oncogenic activity in synovial sarcomas” (Nature Communications, 2022)
